Measured values as given in patent US20250289901A1 (CHONGQING GENRIX BIOPHARMACEUTICAL, published 2025).

Tests used:
[1] = biological target: T1, CD3E on the surface of Jurkat human acute T lymphocyte leukemia cell (human, UniProt P07766 23-207); assay: flow cytometry on Jurkat cells, goat anti-human IgG-FITC
T1 construct: whole, on cells; also called CD3 positive Jurkat cells
Description: (§1) Jurkat human acute T-lymphocyte leukemia cells (Cell Resource Center, Institute of Basic Medicine, Chinese Academy of Medical Sciences) in the logarithmic growth phase were harvested, centrifuged, and resuspended in PBS buffer containing 1% BSA to 2×10⁶ cells/mL, and plated at 100 μL/well in 96-well V bottom plates. […] Next, the cells were washed three times with 200 μL of PBS solution, and suspended in 100 μL of PBS solution. Thereafter, the FITC channel was detected by flow cytometer (ACEA, Novocyte).

[2] = biological target: T2, extracellular region of human BCMA with C-terminal His tag (human, UniProt Q02223 1-54); assay: bridging ELISA: CD3E-FcK/CD3D-FcH coated, antibody, then BCMA-His, detected with HRP anti-His
T2 construct: No linker between the extracellular region and the tag is stated; also called hBCMA-his; hBCMA-His
T2 sequence: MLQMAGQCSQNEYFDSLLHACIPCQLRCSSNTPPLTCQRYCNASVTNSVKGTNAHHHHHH
Description: A 96-well ELISA plate was coated with CD3E-FcK/CD3D-FcH antigen (3 μg/mL, 100 μL/well), and was coated overnight in a refrigerator at 4° C. […] The ELISA plate was washed with PBS-0.1% Tween 20, followed by addition of BCMA-His antigen (1 μg/mL, 100 μL/well) and incubation at 37° C. for 1 hour. The ELISA plate was washed with PBS-0.1% Tween 20, followed by addition of HRP mouse anti-his IgG (Beijing ComWin Biotech Co., Ltd., cw0285M) and incubation at 37° C. for 1 hour. The ELISA plate was washed with PBS-0.1% Tween 20, and OPD substrate color development solution was added. The color development was terminated with 1 M H2SO4 after 5-10 minutes.

[3] = biological target: T3, BCMA on the surface of NCI-H929 human plasma cell leukemia cell (human, UniProt Q02223 1-184); assay: flow cytometry on NCI-H929 cells, goat anti-human IgG-FITC
T3 construct: whole, on cells; also called BCMA positive NCI-H929 cells; BCMA-positive tumor cells
T3 sequence (looked up): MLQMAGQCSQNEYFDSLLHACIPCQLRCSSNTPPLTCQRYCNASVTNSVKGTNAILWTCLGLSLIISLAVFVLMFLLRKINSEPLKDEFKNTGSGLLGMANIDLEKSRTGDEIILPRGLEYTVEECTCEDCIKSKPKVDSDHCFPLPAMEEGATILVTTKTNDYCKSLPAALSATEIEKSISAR
Description: as §1, with “NCI-H929” for “Jurkat”, “plasma cell” for “acute T-lymphocyte”, “in” for “in the”

T1 sequence (P07766 23-207): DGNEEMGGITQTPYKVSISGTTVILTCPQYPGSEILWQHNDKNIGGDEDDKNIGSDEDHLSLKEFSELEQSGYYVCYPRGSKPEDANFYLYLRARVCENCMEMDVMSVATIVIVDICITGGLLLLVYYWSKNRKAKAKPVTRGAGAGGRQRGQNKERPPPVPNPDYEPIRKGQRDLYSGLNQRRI

B1: anti-CD3E monoclonal antibody H10B7+L9B9 (antibody, human IgG1, kappa, V domains shown)
VH: QVQLVESGGGVVQPGRSLRLSCAASGFKFSGYGMHWVRQAPGKGLEWVAVIWFDGSRKYYVDSVKGRFTISRDNSKNTLYLQMNSLRAEDTAVYYCARQMGYWHFGLWGRGTLVTVSS
VL: DIQMTQSPSSLSASVGDRVTITCRASQSISNYLTWYQQKPGKAPKLLIYEASSRPSGVPSRFSGSGSGTDFTLTISSLQPEDFATYYCQQWSRLPVTFGQGTKVEIKR
[1]
  EC50 (read off the curve): ~1 nM
[2]
  binding result: no binding

B2: anti-BCMA monoclonal antibody H13F1+L9B9 (antibody, human IgG1, kappa, V domains shown)
VH: QVQLVQSGAEVKKPGSSVKVSCKASGYTFTNYWMHWVRQAPGQGLEWMGATYRGHSDTYYNQKFKGRVTITADKSTSTAYMELSSLRSEDTAVYYCTRGAVYAGYDVLDYWGQGTTVTVSS
VL: B1 VL
notes: also called mutant of C4 (IgG1 subtype)
[3]
  EC50 (read off the curve): ~8 nM

B3: bispecific antibody CD3ExBCMA (bispecific antibody, human IgG1, kappa)
heavy 1: QVQLVESGGGVVQPGRSLRLSCAASGFKFSGYGMHWVRQAPGKGLEWVAVIWFDGSRKYYVDSVKGRFTISRDNSKNTLYLQMNSLRAEDTAVYYCARQMGYWHFGLWGRGTLVTVSSASTKGPSVFPLAPSSKSTSGGTAALGCLVKDYFPEPVTVSWNSGALTSGVHTFPAVLQSSGLYSLSSVVTVPSSSLGTQTYICNVNHKPSNTKVDKRVEPKSCDKTHTCPPCPAPEFEGGPSVFLFPPKPKDTLMISRTPEVTCVVVDVSHEDPEVKFNWYVDGVEVHNAKTKPREEQYNSTYRVVSVLTVLHQDWLNGKEYKCKVSNKALPASIEKTISKAKGQPREPQVYTLPPCREEMTKNQVSLWCLVKGFYPSDIAVEWESNGQPENNYKTTPPVLDSDGSFFLYSKLTVDKSRWQQGNVFSCSVMHEALHNHYTQKSLSLSPGK
heavy 2: QVQLVQSGAEVKKPGSSVKVSCKASGYTFTNYWMHWVRQAPGQGLEWMGATYRGHSDTYYNQKFKGRVTITADKSTSTAYMELSSLRSEDTAVYYCTRGAVYAGYDVLDYWGQGTTVTVSSASTKGPSVFPLAPSSKSTSGGTAALGCLVKDYFPEPVTVSWNSGALTSGVHTFPAVLQSSGLYSLSSVVTVPSSSLGTQTYICNVNHKPSNTKVDKRVEPKSCDKTHTCPPCPAPEFEGGPSVFLFPPKPKDTLMISRTPEVTCVVVDVSHEDPEVKFNWYVDGVEVHNAKTKPREEQYNSTYRVVSVLTVLHQDWLNGKEYKCKVSNKALPASIEKTISKAKGQPREPQVCTLPPSREEMTKNQVSLSCAVKGFYPSDIAVEWESNGQPENNYKTTPPVLDSDGSFFLVSKLTVDKSRWQQGNVFSCSVMHEALHNHYTQKSLSLSPGK
light: not shown
notes: It is a knob-into-hole IgG1 heterodimer with a common light chain; also called CD3E × BCMA; CD3 × BCMA
[3]
  EC50 (read off the curve): ~8 nM
